This note sets out measurements from IntAct's records for PubMed 16354671.

First the molecules themselves.
B1: Outer-membrane lipoprotein carrier protein (Escherichia coli (strain K12)), P61316 (parent)
chain: MKKIAITCALLSSLVASSVWADAASDLKSRLDKVSSFHASFTQKVTDGSGAAVQEGQGDLWVKRPNLFNWHMTQPDESILVSDGKTLWFYNPFVEQATATWLKDATGNTPFMLIARNQSSDWQQYNIKQNGDDFVLTPKASNGNLKQFTINVGRDGTIHQFSAVEQDDQRSSYQLKSQQNGAVDAAKFTFTPPQGVTVDDQRK
partner: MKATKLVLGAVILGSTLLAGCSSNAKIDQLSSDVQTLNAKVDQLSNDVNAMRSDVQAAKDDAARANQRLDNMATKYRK

The variants in this experiment derive from B1. The conditions noted are these: with lpp_ecoli lpp.
In the case of MKKIAITCALLSSLVASSVWADAASDLKSRLDKVSSFHASFTQKVTDGSGAAVQEGQGDLWVKRPNLFNWHMTQPDESILVSDGKTLWFYNPFVEQATATWLKDATGNTPFMLGARNQSSDWQQYNIKQNGDDFVLTPKASNGNLKQFTINVGRDGTIHQFSAVEQDDQRSSYQLKSQQNGAVDAAKFTFTPPQGVTVDDQRK [I114G], the “effect of a mutation on the interaction” value was “increasing interaction”.
